± gives the uncertainty stated by the source.

The data set in a line: amyloid nucleation score (Sup35N fusion, yeast selection) (log enrichment); library NNK3; higher = more nucleation; inactive = no reads after selection. In outline: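 Growth for 7 days at 30°C on medium lacking adenine and uracil followed a 24-hour induction with 100 μM copper sulfate of psi-negative yeast expressing peptides of 20 random codons fused to Sup35N. Input and output plasmid inserts were sequenced with Illumina, and sequences with under 100 input reads were excluded. Nucleation score is the DiMSum log enrichment of output over input reads, centred on the mode score of non-aggregating sequences.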
As for AYNFEHFPDETSAQGHVY, the amyloid nucleation score result is “inactive”. Then AYRSKLKLCSYWIMGCVHPL, with “inactive”; and AYVLARFLEDFFMILLWDRW, with “inactive”; and CADFFQDCAHKIFKNNRITG, with “inactive”. For the substance CAFPVDGRGTIVVFRHVLEG, the amyloid nucleation score entry is “inactive”. CAKDMMCRVYMSLLLHLGVD: the amyloid nucleation score entry was “inactive”. Under CANQGGCIICDATYQCVIIA stands 0.649 ± 0.14. Consider CCACWGINHSYGLSTEVSQY, for which the amyloid nucleation score result was “inactive”. Take CCFHLFTYCKGKARYTLWSV: the amyloid nucleation score entry is “inactive”. With CCGEHRVGQWV, the amyloid nucleation score was determined as 0.157 ± 0.27. For the substance CCIIYVVRRGE, the amyloid nucleation score was found to be 1.28 ± 0.096. In the case of CCLEILGTLFN, the amyloid nucleation score entry is “inactive”. As to CCMVYGGYMM, the amyloid nucleation score result is “inactive”. With CCRFAVLRRLERSDQKGVWI, the amyloid nucleation score result is “inactive”. With CCTSA, the amyloid nucleation score entry is “inactive”. With CCWYPYEYIINYASVTSQFP, the amyloid nucleation score is 1.56 ± 0.066. Consider CDEVLTDKLVWGREFILWSD, for which the amyloid nucleation score result is “inactive”. As for CDFREVTLDY, the amyloid nucleation score result was “inactive”.

With CDGNMVGSTAIPVSFFPFGR, the amyloid nucleation score entry is “inactive”.

For the substance CDGPMSYMGLGTAGKR, the amyloid nucleation score entry was “inactive”. CDLDLLHGWCGNKRMGSCGR: the amyloid nucleation score entry was “inactive”.

On to CDLMAKGSCIEQPQPSVAGK, for which the amyloid nucleation score result is “inactive”.

With CDVSGSCPGRSPARLKEGSR, the amyloid nucleation score entry is “inactive”.

Take CEEPFLNCHFLDY: the amyloid nucleation score result was “inactive”.

As for CELGNIVHS, the amyloid nucleation score entry was “inactive”. In the case of CEQDTCFIHISRYTTVNNTM, the amyloid nucleation score result is “inactive”.

CEQQSRYHMKFMPASLLSFK: the amyloid nucleation score entry was “inactive”. CESRP: the amyloid nucleation score entry is “inactive”. For the substance CEVGQCQGYVELLSYIHYNS, the amyloid nucleation score entry is “inactive”. Then CEWNS, with “inactive”; and CFAKCFMKNLRSIGRVFLMG, with “inactive”. For the substance CFCRMNIGGHCGVRRKLKV, the amyloid nucleation score entry was “inactive”. Take CFDCTVF: the amyloid nucleation score entry was “inactive”. Consider CFGCVWLTITTNFPTVLFRG, for which the amyloid nucleation score result is “inactive”. Turning to CFGISLTESMSTSQNVVLDH, the amyloid nucleation score result was “inactive”.

As for CFGRSGPW, the amyloid nucleation score entry is “inactive”. In the case of CFLVTVSSGTASMQVLGRSG, the amyloid nucleation score turned out to be 1.23 ± 0.14. As for CFLYYRM, the amyloid nucleation score is 1.17 ± 0.11.

Turning to CFNNKVVNTWRICMVGLSLS, the amyloid nucleation score result is “inactive”. Under CFPIPVWRGDLNGAPRYAQM stands “inactive”; under CFRPPFTFRYFALARGKAAD, “inactive”.

CFSLGVCGQAKVNVWNNIYV had an amyloid nucleation score of 2.71 ± 0.054. CGGGALLDICLPFICPVNGL registered an amyloid nucleation score of 0.843 ± 0.19. Then CGGLHQHNLMRRCRWMKPGE, with “inactive”; and CGLDSCLVICQYK, with 0.584 ± 0.28. As to CGNTSIV, the amyloid nucleation score entry is “inactive”. With CHASEWACYATLFLQT, the amyloid nucleation score result is “inactive”.

Turning to CHLPQRP, the amyloid nucleation score was 0.989 ± 0.2. Consider CHPLGRCALWWCFVPHGRFA, for which the amyloid nucleation score entry was “inactive”. On to CIDQTTLKHTLDNCLIFF, for which the amyloid nucleation score entry is “inactive”. On to CIDSYLMYVFVAQQPGN, for which the amyloid nucleation score entry was “inactive”. For the substance CIFFWSALARLFFGLFNYPC, the amyloid nucleation score result is “inactive”. Under CIFLDGVAPFWMGESRWRSG stands “inactive”; under CIFMRIYGVC, “inactive”. Under CIILAGYISLLRLDNDSGWV stands “inactive”; under CIILRVCTHLVKSSARLPAP, “inactive”; under CIPPCW, “inactive”. In the case of CIRSS, the amyloid nucleation score entry is “inactive”. Regarding CISRKFFSVRSVYLWYVSAT, the amyloid nucleation score entry is “inactive”. Under CISSCYWWFGFYVLKWE stands “inactive”; under CIYCTSSL, 0.519 ± 0.21; under CIYNVKALIQRVWIMIEVTS, 0.707 ± 0.13. For the substance CKIRGCKVLLDFVMASVDLW, the amyloid nucleation score result was “inactive”. Take CKMRYEDESWFKWVVDLSFN: the amyloid nucleation score result was “inactive”.

Take CKNLWRVLGISPTRSSSMRV: the amyloid nucleation score entry was “inactive”. Then CKRCIPMRYYQL, with “inactive”; and CKRHLNYSVSRAKAEKINYL, with “inactive”; and CKSDFCISNVLWLYGLKFQR, with “inactive”. Turning to CKTHQVSYAYLC, the amyloid nucleation score result was “inactive”.

In the case of CKTLFFCMWNCFCFTVYSWF, the amyloid nucleation score result is “inactive”. CLCSDTNVK: the amyloid nucleation score entry is “inactive”. For CLELK, the amyloid nucleation score was -0.204 ± 1.1. Regarding CLGMSFLRRMGTMSAYPTIK, the amyloid nucleation score result is “inactive”.

Consider CLMVKHYFFVSSWRFNVFGI, for which the amyloid nucleation score result was “inactive”.

Consider CLPSFRGFTTNIMGLIRSRV, for which the amyloid nucleation score entry was “inactive”.

As for CLPSVRQKGSWRLR, the amyloid nucleation score was -0.338 ± 0.82.

For CLQDPFPTIVPIVMGSIAKE, the amyloid nucleation score result is “inactive”. As to CLRDCKTPDSATHTRAINGL, the amyloid nucleation score entry was “inactive”. For CLRMGYVLRSRWERLDCLKW, the amyloid nucleation score entry was “inactive”. On to CLRRTLEPW, for which the amyloid nucleation score entry is “inactive”. Under CLRRVPLQRSSFLSVNLKLM stands “inactive”. With CLTYHSCIFRVHLFTISINV, the amyloid nucleation score entry was “inactive”. Regarding CLVGPVHPMFVL, the amyloid nucleation score entry was “inactive”. Turning to CLVNNLCVLR, the amyloid nucleation score was 0.047 ± 0.55.

As to CLVTLVLTKFWCMCASSAVD, the amyloid nucleation score result is “inactive”. In the case of CLVVKLFHTSSCMNSYMRGG, the amyloid nucleation score came out at 1.67 ± 0.11. Under CLYIKVFEFNS stands 2.16 ± 0.076; under CLYKSFLIS, “inactive”; under CMAIVATATRSGPVGRSLAK, 0.508 ± 0.33.

Take CMAMSFPWWWYTGIITYSL: the amyloid nucleation score entry was “inactive”. As to CMFFLLPIIAYSV, the amyloid nucleation score result is “inactive”.

CMFKGHAELLRWVL: the amyloid nucleation score result is “inactive”. Under CMIMRAFRYNVALDMHMLHD stands “inactive”. For CMKLYRHFLNKASVHSDKGV, the amyloid nucleation score entry is “inactive”. Consider CMRYVGSPDNRHWASGKGIP, for which the amyloid nucleation score result is “inactive”. Take CMVFMYQILVPAWALRSYIL: the amyloid nucleation score result is “inactive”. With CMVLDGRYNGWSISVWDARL, the amyloid nucleation score entry was “inactive”.

As to CMVNFS, the amyloid nucleation score entry is “inactive”.

Turning to CNCPPPPSSRYYSFSKAVYG, the amyloid nucleation score entry was “inactive”. Regarding CNCVRWWRSSSTTNG, the amyloid nucleation score result was “inactive”.

With CNHLSSTCFT, the amyloid nucleation score entry was “inactive”. As for CNLGWRNLDMVKG, the amyloid nucleation score entry is “inactive”. Take CNLVVYCMSDNDV: the amyloid nucleation score was found to be 2.33 ± 0.049. Under CNQTSM stands “inactive”. Regarding CNVGPVSLFRFMGPLNYRDE, the amyloid nucleation score result was “inactive”. Then CNVIE, with “inactive”; and CNYCALLTCLRGMPN, with 1.16 ± 0.12; and CPCFNLV, with “inactive”. Turning to CPGVHWHDVK, the amyloid nucleation score result is “inactive”. For CPLLSGFDESWDVEYDAQGD, the amyloid nucleation score result was “inactive”. With CPLVFDMILVSLCSNGAGLI, the amyloid nucleation score result was “inactive”. Then CPTVMAYGKTGG, with 0.934 ± 0.21; and CPVTIYSVYNTASVKALFLR, with “inactive”; and CQISWL, with “inactive”. As to CQRYQALSNCPYSATWGSDT, the amyloid nucleation score entry was “inactive”. Substance CQVSCFNLVSIKSWDKIAGS gave an amyloid nucleation score of 2.52 ± 0.06. Under CRAVND stands “inactive”. Take CRDSWFWSV: the amyloid nucleation score result was “inactive”. Then CRHTLSRHDVTRCNSEVSSL, with “inactive”; and CRMDGIKGSEIRNADAWAIY, with “inactive”. For the substance CRNSEKVWDPQRTVRALSRF, the amyloid nucleation score result is “inactive”. CRRFELS displayed an amyloid nucleation score of -1.04 ± 1.9. For the substance CRSGCQ, the amyloid nucleation score entry is “inactive”. The substance CRVAMILSCFTMVFCSQAAT returned an amyloid nucleation score of 1.5 ± 0.081. With CRVSGGTCMTGISDRRRERI, the amyloid nucleation score entry is “inactive”. Take CRYESVYLNVEILPVTVAVV: the amyloid nucleation score result was “inactive”. For CRYSLWSFSQMGEWMPRCER, the amyloid nucleation score entry is “inactive”.

For the substance CSCYENFELVPGFRRCRGMV, the amyloid nucleation score result is “inactive”. Substance CSFIAGAPTSFWVVGLCWKY yielded an amyloid nucleation score of -0.031 ± 0.72. Substance CSIARLFWFFPVMPSCIG returned an amyloid nucleation score of -0.236 ± 1.1. With CSIGRSTVDVRWGEGLWNRL, the amyloid nucleation score entry is “inactive”.

Take CSIWLCNKNVQIAN: the amyloid nucleation score entry is “inactive”.

CSLLGKMLTYNSDYGFQLNY: the amyloid nucleation score result is “inactive”.
